According to publication PMC3521685:

Biological target: Myc-Sharp-1-bHLH (UniProt Q99PV5)
Chain of UniProt Q99PV5 (Q99PV5 44-99): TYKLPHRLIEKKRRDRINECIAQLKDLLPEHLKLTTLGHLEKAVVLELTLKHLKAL

## FLAG-G9a (full-length G9a) (from UniProt Q9Z148 1-1263) (enzyme)
  inhibition of MyoD activity (pMyog-Luc reporter) by Sharp-1-bHLH: 50%
